Measurements from article PMC11676285, “Enhancement of the Thermostability of Microbacterium Esterase by Combinatorial Rational Design” (Molecules, 2024).
Changes are numbered by the printed parent chain. Names and notes keep the numbering of the source.

B1: EstSIT01 (Microbacterium aurantiacum) (protein)
chain: MTLFDGITSRIVDTDRLTVNILERAADDPQTPPDRTVVFVHGNVSSALFWQEIMQDLPSDLRAIAVDLRGFGGSEHAPVDATRGVRDFSDDLHATLEALDIPVAHLVGWSMGGGVVMQYALDHPVLSLTLQSPVSPYGFGGTRRDGSRLTDDDAGCGGGGANPDFIQRLIDHDTSDDAQTSPRSVFRAGYVASDYTTDHEDVWVESMLTTSTADGNYPGDAVPSDNWPGFAAGRHGVLNTMAPQYFDVSGIVDLAEKPPILWIHGTADAIVSDASFYDLNYLGQLGIVPGWPGEDVAPAQEMVSQTRDVLGRYAAGGGTVTEVAVEGAGHSAHLERPAVFRHALLEIIGYVGAAADPAPPTEAIIIRSAD
B2: EstSIT01 (Microbacterium aurantiacum; E301P) (protein)
chain: B1 chain with E301P
B3: EstSIT01 (Microbacterium aurantiacum; E301P/G215A) (protein)
chain: B1 chain with G215A, E301P
B4: EstSIT01 (Microbacterium aurantiacum; E301P/G215A/G293A) (protein)
chain: B1 chain with G215A, G293A, E301P

substrate: COC(=O)[C@@H]1[C@H](C(=O)OC)N(Cc2ccccc2)C(=O)N1Cc1ccccc1; experiment: HPLC of biotin monomethyl ester, Michaelis-Menten fit; assay type: biochemical, Microbacterium aurantiacum; conditions: pH 8.0, 0.05 M PBS, 30 °C, substrate 0.1 to 10 mM
Text: HPLC of biotin monomethyl ester, Michaelis-Menten fit on […]01

Protein	Km [µM]	kcat [s⁻¹]	kcat/Km [M⁻¹ s⁻¹]
B1	150 ± 20	7.8 ± 0.31	51900
B2	220 ± 30	5.1 ± 0.28	23200
B3	210 ± 40	5.4 ± 0.37	25600
B4	180 ± 30	6.3 ± 0.39	34900
